The target in assay [1] is Single-chain t-PA.
Assay [2] has as its target Ixonnexin (Ixodes scapularis) (UniProt Q4PMS3). The experiment in a line: SPR; Ixonnexin amine-coupled to a carboxymethylated dextran (CM5) chip, 726.2 RU; analytes injected 120 s at 30 µL/min, 25 °C, dissociation 600 s; global fit with the two-state (conformational change) model, Langmuir 1:1 for plasmin. For orientation: SPR reads the build-up and loss of mass on a sensor chip optically.

With Glu-plasminogen (natural protein), the Km of plasmin generation (S2251) started with t-PA, with immobilized Ixonnexin (0.5 μg/ml) and increasing Glu-plasminogen in assay [1] was 0.208 µM. Moreover, in assay [2], the Kd – broadly, the concentration at which binding is half-saturated – came out at 19.5 nM; the ka1 (two-state, first step) was 123000 M⁻¹ s⁻¹; the ka2 (two-state, conformational change) amounted to 0.022 s⁻¹; the kd1 (two-state, first step) was found to be 0.057 s⁻¹. In assay [2], this substance came in with a kd2 (two-state, conformational change) of 0.00099 s⁻¹.
As to Plasmin (enzyme), in assay [2], the equilibrium dissociation constant (Kd) stood at 197 nM, the koff (commonly the first-order rate constant of dissociation) was determined as 0.29 s⁻¹ and the on-rate (kon) (commonly the second-order rate constant of association) is 1.48e+06 M⁻¹ s⁻¹.
In assay [2], Single-chain t-PA (enzyme) gave a Kd of 4.67 nM; a ka1 (two-state, first step) of 413000 M⁻¹ s⁻¹; a ka2 (two-state, conformational change) of 0.0097 s⁻¹; a kd1 (two-state, first step) of 0.031 s⁻¹. The same substance gave a kd2 (two-state, conformational change) in assay [2] of 0.0015 s⁻¹.
On the same counts, the results for Two-chain t-PA (enzyme) are 10.3 nM, 1.2e+06 M⁻¹ s⁻¹, 0.011 s⁻¹, 0.43 s⁻¹ and 0.0018 s⁻¹.

Values taken from paper PMC5859130.
